In patent US20110118131A1 (published 2011):
Residue numbers refer to the chain shown, from its start. Numbers in names are those of the source.

B1: XPA23 Fab, heavy chain S52W (Fab, V domains shown)
VH: EVQLLESGGGLVQPGGSLRLSCAASGFTFSKYFMFWVRQAPGKGLEWVSVIWPSGGMTRYADSVKGRFTISRDNSKNTLYLQMNSLRAEDTAVYYCARVGYGGNSDYWGQGTLVTVSS
VL: DIQMTQSPSSVSASVGDRLTIICRASQDINRWLAWYQQTPGNAPKLLIHSATSLQSGVPSRFSGSGSGTDFTLTINSLQPEDFATYYCQQADSFPLTFGGGTKVEIK
B2: XPA23 Fab, heavy chain T58K (Fab, V domains shown)
VH: B1 VH with W52S, T58K
VL: B1 VL
B3: XPA23 Fab, heavy chain S105N (Fab, V domains shown)
VH: B1 VH with W52S, S105N
VL: B1 VL
B4: XPA23 Fab, heavy chain S54R (Fab, V domains shown)
VH: B1 VH with W52S, S54R
VL: B1 VL
B5: XPA23 Fab, heavy chain S105R (Fab, V domains shown)
VH: B1 VH with W52S, S105R
VL: B1 VL
B6: XPA23 Fab, heavy chain V50H (Fab, V domains shown)
VH: B1 VH with V50H, W52S
VL: B1 VL
B7: XPA23 Fab, heavy chain T58E (Fab, V domains shown)
VH: B1 VH with W52S, T58E
VL: B1 VL
B8: XPA23 Fab, heavy chain T28H (Fab, V domains shown)
VH: B1 VH with T28H, W52S
VL: B1 VL
B9: XPA23 Fab, heavy chain V50Q (Fab, V domains shown)
VH: B1 VH with V50Q, W52S
VL: B1 VL
B10: XPA23 Fab, heavy chain T58W (Fab, V domains shown)
VH: B1 VH with W52S, T58W
VL: B1 VL
B11: XPA23 Fab, heavy chain S105F (Fab, V domains shown)
VH: B1 VH with W52S, S105F
VL: B1 VL
B12: XPA23 Fab, heavy chain S54W (Fab, V domains shown)
VH: B1 VH with W52S, S54W
VL: B1 VL
B13: XPA23 Fab, heavy chain T58N (Fab, V domains shown)
VH: B1 VH with W52S, T58N
VL: B1 VL
B14: XPA23 Fab, heavy chain V50K (Fab, V domains shown)
VH: B1 VH with V50K, W52S
VL: B1 VL
B15: XPA23 Fab, heavy chain S105Y (Fab, V domains shown)
VH: B1 VH with W52S, S105Y
VL: B1 VL
B16: XPA23 Fab, heavy chain S105E (Fab, V domains shown)
VH: B1 VH with W52S, S105E
VL: B1 VL
B17: XPA23 Fab, heavy chain T28E (Fab, V domains shown)
VH: B1 VH with T28E, W52S
VL: B1 VL
B18: XPA23 Fab, heavy chain T28G (Fab, V domains shown)
VH: B1 VH with T28G, W52S
VL: B1 VL
B19: XPA23 Fab, heavy chain S54Y (Fab, V domains shown)
VH: B1 VH with W52S, S54Y
VL: B1 VL
B20: XPA23 Fab, heavy chain S105W (Fab, V domains shown)
VH: B1 VH with W52S, S105W
VL: B1 VL
B21: XPA23 Fab, heavy chain T28Q (Fab, V domains shown)
VH: B1 VH with T28Q, W52S
VL: B1 VL
B22: XPA23 Fab, heavy chain T58D (Fab, V domains shown)
VH: B1 VH with W52S, T58D
VL: B1 VL
B23: XPA23 Fab, heavy chain T58S (Fab, V domains shown)
VH: B1 VH with W52S, T58S
VL: B1 VL
B24: XPA23 Fab, heavy chain T58R (Fab, V domains shown)
VH: B1 VH with W52S, T58R
VL: B1 VL
B25: XPA23 Fab, heavy chain S105Q (Fab, V domains shown)
VH: B1 VH with W52S, S105Q
VL: B1 VL
B26: XPA23 Fab, heavy chain V50F (Fab, V domains shown)
VH: B1 VH with V50F, W52S
VL: B1 VL
B27: XPA23 Fab, heavy chain S52Y (Fab, V domains shown)
VH: B1 VH with W52Y
VL: B1 VL
B28: XPA23 Fab, heavy chain S54N (Fab, V domains shown)
VH: B1 VH with W52S, S54N
VL: B1 VL
B29: XPA23 Fab, heavy chain S54K (Fab, V domains shown)
VH: B1 VH with W52S, S54K
VL: B1 VL
B30: XPA23 Fab, heavy chain T28R (Fab, V domains shown)
VH: B1 VH with T28R, W52S
VL: B1 VL
B31: XPA23 Fab, heavy chain S54D (Fab, V domains shown)
VH: B1 VH with W52S, S54D
VL: B1 VL
B32: XPA23 Fab, heavy chain V50D (Fab, V domains shown)
VH: B1 VH with V50D, W52S
VL: B1 VL
B33: XPA23 Fab, heavy chain T58Y (Fab, V domains shown)
VH: B1 VH with W52S, T58Y
VL: B1 VL
B34: XPA23 Fab, heavy chain T58F (Fab, V domains shown)
VH: B1 VH with W52S, T58F
VL: B1 VL
B35: XPA23 Fab, heavy chain S54F (Fab, V domains shown)
VH: B1 VH with W52S, S54F
VL: B1 VL
B36: XPA23 Fab, heavy chain T28K (Fab, V domains shown)
VH: B1 VH with T28K, W52S
VL: B1 VL
B37: XPA23 Fab, heavy chain V50E (Fab, V domains shown)
VH: B1 VH with V50E, W52S
VL: B1 VL
B38: XPA23 Fab, heavy chain S54Q (Fab, V domains shown)
VH: B1 VH with W52S, S54Q
VL: B1 VL
B39: XPA23 Fab, heavy chain S54E (Fab, V domains shown)
VH: B1 VH with W52S, S54E
VL: B1 VL
B40: XPA23 Fab, heavy chain T28W (Fab, V domains shown)
VH: B1 VH with T28W, W52S
VL: B1 VL
B41: XPA23 Fab, heavy chain T58H (Fab, V domains shown)
VH: B1 VH with W52S, T58H
VL: B1 VL
B42: XPA23 Fab, heavy chain S105H (Fab, V domains shown)
VH: B1 VH with W52S, S105H
VL: B1 VL
B43: XPA23 Fab, heavy chain T58Q (Fab, V domains shown)
VH: B1 VH with W52S, T58Q
VL: B1 VL

The binders below were run against T1, IL-1beta (UniProt P01584 117-269) (assay: Biacore).
T1 construct: also called IL-1β

Binder | binding result | fold difference in affinity vs parental [fold]
B1 | no binding | 
B2 | no binding | 
B3 |  | 0.85
B4 |  | 1.43
B5 | no binding | 
B6 | no binding | 
B7 | no binding | 
B8 | no binding | 
B9 | no binding | 
B10 |  | 0.93
B11 |  | 1.25
B12 |  | 1.07
B13 |  | 0.9
B14 | no binding | 
B15 | no binding | 
B16 |  | 1.17
B17 | no binding | 
B18 | no binding | 
B19 |  | 0.99
B20 | no binding | 
B21 | no binding | 
B22 |  | 0.12

Binder | binding result | fold difference in affinity vs parental [fold]
B23 |  | 0.82
B24 |  | 1.14
B25 |  | 0.98
B26 | no binding | 
B27 | no binding | 
B28 |  | 0.08
B29 |  | 1.53
B30 | no binding | 
B31 |  | 0.12
B32 | no binding | 
B33 |  | 1.01
B34 |  | 1.04
B35 |  | 0.87
B36 | no binding | 
B37 | no binding | 
B38 |  | 1.01
B39 |  | 0.03
B40 | no binding | 
B41 |  | 0.98
B42 |  | 0.05
B43 | no binding | 
